The data set is described as follows: soluble on expression in E. coli; label from the status in PepcDB or PDB records.
Regarding “MLIEGANSHGSGILLQRHGNTYVILTAYHVIEKGGQYTVKTVDGQRYAVRPSSIRRLPSVDLATLEIESNRDYTLATLGNSGEAVEGMPVFVAGFPAQEASVLGGIYQFTEGRLTANASRPIQDGYALVYSNPTLPGMSGGPVLDENGRLIGIHGSADIASTLVQEGSGASTVFVKRGFNLGIPIHTYLGLATPSRQTTVLPALASMKAADYFLAAEVAFRRKNFAAAIENYSQAIARNPNYSEAYLGRAVAQIFALVPNQDFDQLGEELGTKYLSRLTQGNPLLKDAFPPNPPTPLLETFMRTMAERPGTIQPDIAKAIALNPQYTEAYGVSSFLNLLLGNFGNAIAESERALALRPNNSDLQMIHSLALFLSGDFRRSIAVFDRLITANPQNTDYHLLRGVAAFMMGDYALSRPSWTALTQLTPRNPMPFALRGVTYLLEENFKASLPDLRQAAELYRQQGDMQSYNQMMQAIRQIESRLEHHHHHH”, the “soluble on expression in E. coli” value is reported as “not soluble”.

Take “AAGVLKHRRRKEKAQRKLVGMQANLDRLSDLTAELGKQLKPLARQAEAARKAATIQSEVRDARLRIAGYQIHSLASSLKDAQSHHDSIAEKLEEVTEQLEEATGVQLEAEDALGKISPEAEKSQQLWFELSSLAERVSATQRIATDRAKNFSEVRYSGPDPDELAEKAARADAEYAEAEETVDILSERLESIQDNVAELEEQAQRADREHLAQVRAIADRREGIVRLLTLESQQREHIVAAEAELERLREAESDIAAQARSKDAEHKDCQTQAQEARSRIEPLSQSRDAALNESRAADSRLEQLREQQSDIDKSISRLESKIETLESHRMTRNAVKQWEKLQSFYGVDRYIIPQRGMEKAIAAALGPVAEALVGETTTAELQALDIESLARHIVITPGEDHDWRLATDLPHYASWLLDYVELAPEVSSTIVQILADVVLVDSYEHGREVVNHDPRLRAVCVDGTMWGHGWVAVGSAERSAVEIAAEIDQAEKDLEVARLQRVELAGTLNGAHQAADEARVRSAQAQAVCREQEIVVENFSRRVEAVSHEAEARKQELRRHALRVQEAQDRLNQLRQLWEETSDRLSRVEEDNSEEEPSTSERDKAAAALSHMRSMEVEARLSLRTAQDKAEHIRGRGDGLRRQAEYERQARARHDQAVARQRRKAEIASVVAQQCLVVAERVDDALARATQWKENAIAQRGVISARVSAAKDTVSALRTNANRLTEKSHAAELSLGQAQVRLEEAHEKIVEQLGIAISDLMRDYTPHEGFDIGAQRVRLKNAEKDLNALGKVNPLALEEFKALEERYEFLSTQLADVEQARRDLHGVINDVDTKILQ”: the “soluble on expression in E. coli” value is given as “not soluble”.

For “FLVPPTVEQKTRPFTLPNLPLSSLSNSRAPLPISSMGISPDNVQSVQFQNGRCTLDGRLVGTTPVSLSHVAKIRGTSNGTVINLTELDGTPFHPFEGPAPIGFPDLGGCDWHINMTQFGHSSQTQYDVDTTPDTFVPHLGSIQANGIGSGNYVGVLSWISPPSHPSGSQVDLWKIPNYGSSITEATHLAPSVYPPGFGEVLVFFMSKMPGPGAYNLPCLLPQEYISHLASEQAPTVGEAALLHYVDPDTGRNLGEFKAYPDGFLTCVPNGASSGPQQLPINGVFVFVSWVSRFYQLKPVGTASSARGRLGLRR”, the “soluble on expression in E. coli” value is on record as “soluble”.

For the sequence “MGSDKIHHHHHHMSLFAALRLPREILFGKGQRHALSTVAGRFGRHALVCTDERFAGTAVFAEIVQSLQAASIEVLVHDRVLPDVPRDSVGICVDEAEKFQPEMVIGIGGGSCLDFAKCADLLLSHGGKLQDYYGEFKVPGPTLPLIAVPTTAGTGSEVTPVAVISDPDRTLKVGISSPYLIAAVALCDPELTMTCPPALTAIAGADALTHAIEAFTAKQRGEDPSLAQQHVFIGKTALTDHFALLAIKLLGRSLEKACTDGTDADARADVMMGALAAGCAFGTAGTAAAHAVQYPAGALTHTAHGLGVATMMPYVMTYNSRVVAAEMAEIGDALGLEAKGRSAEEMADATIKEIRRLFTAIGITPTLADLGLPADKLDWTADQALGIDRLIKNNPRPFDLTAMRRLVQAAHDGDLAACAM”, the “soluble on expression in E. coli” value was “not soluble”.

Take “GSLQDNSSYPDEPWRITEEQREYYVNQFRSLQPDPSSFISGSVAKNFFTKSKLSIPELSYIWELSDADCDGALTLPEFCAAFHLIVARKNGYPLPEGLPPTLQPEFIVTD”: the “soluble on expression in E. coli” value is reported as “soluble”.

In the case of “MASKIEPGSPQPIYLDVQATAPMDPRVVDAMLPYMINDFGNPHSRTHSYGWKAEEGVEQAREHVANLIKADPRDIIFTSGATESNNLAIKGVAKFRKQSGKNHIITLQTEHKCVLDSCRYLENEGFKVTYLPVDKGGMVDMEQLTQSITAETCLVSIMFVNNEIGVMQPIKQIGELCRSKGVYFHTDAAQATGKVPIDVNEMKIDLMSISAHKIYGPKGAGALYVRRRPRVRIEAQMSGGGQERGLRSGTVAAPLCIGLGEAAKIADKEMAMDKAHVERLSQMLINGISDKLPHIIRNGDARHAYPGCVNLSFAYVEGESLLMALKSIALSSGSACTSASLEPSYVLRAIGSEEDLAHSSIRFGLGRFTTDEEVKHTIDLCIRETNRLRDLSPLWEMVQEGIDLKSIQWTQH”, the “soluble on expression in E. coli” value is on record as “not soluble”.

Consider “MGSDKIHHHHHHMMLGNIAYMNPWWEGKEDYHVKLWKNQKIRWEPNWVREISLKPFSLNFILGPRQVGKTTGIKLLIQKILENNPPESVLYLNLEVLPTYRDLLEIIREFQELKKEERIKTGYIFLDEASSLEGWWRGIKPLIDAGLLENDVVTVTGSSSLRVRRDIEMFPGRRGEGKTLEIMPLSFPEYIKVMGLKKHRLESTKVLKLFDKYIQTGGFPGSINGFPMEDLLGAYIGEFVRFGKSLEIAKETLAALIRSAPSATSFRALAEMTSGYSYKVIQDYIEFFRDIYILGIAYLKEDNQVMYRREKKFFFRDPLLARLFSLWSGVEVREDALYEWIVQEHVFRRFGEVYYFRNSYEVDVIADNLKIEVKAGKAHRKYPRGVLVLEKDDIPFFLIEYYWTGLK”, for which the “soluble on expression in E. coli” value is on record as “not soluble”.

Turning to “MNLKQISAIIIVKNAKQTLLECLNSLKDFDEIILLNNESSDNTLNIANEFKKDFANLHIYHSAFIGFGALKNLALSYAKNDWILSIDADEVLENECIKELKNLELQEDNIIALSRKNLYKGEWIKACGWWPDYVWRIFNKNFTRFNDNLVHESLVLPSNAKKIYLKNGLRHYAFRDISHLIDKMQYYSSLWAKQNIHKKSGVLKANLRAFWTFFRNYFLKNGFLYGYKGFIISVCNALGTFFKYMKLYELQKQKPKTCALIITTYNQKERLKLVLDSVKNLAFLPNEVLIADDGSKEDTARLIEEYQKDFPCPLKHIWQEDEGFRAAKSRNNAIKASKSEYIILIDGDMILEKDFVKNHLEFAKRKVILQGSRVILNKNESEEILKNNNYSLAFNKKGFKNQRSIFLAKCVYKFSKLTKKFFKKSQLVKGSKTCNMSFYKSDFEAIEGFNEKFIGWGREDSEFVARFLFNDGVFKRLKFNALAYHIYHEENSKNMLEINHQIYLETIKNEKTTWRLEHHHHHH”, the “soluble on expression in E. coli” value was “not soluble”.

“GHWNQPWKCLVDHDGVFDNRMMGYATEELWFSEWENGGTPWENPAGYEQFNPVLHVDKWRVPMLVIHGQKDFRIPVEQGLAAFGALQRKGIESKLLYFHDENHWVLNPQNSIQWHDTVNAWLKKYIG”: the “soluble on expression in E. coli” value was “not soluble”.

On to “MGIKGDKKATSDQARLARLTLEGNSGNEEDIQFMIKTIIETTGCTQAQAEIALLDTDNNLYGAIDHILDAGDKLDSWTEQKGAKKEKKKPEEGSYNNRGFVARGRGGGTGFVDRGGRGRSNGAPRESRDNNRDNRDNKEGAAPRSTRGGFEKPYVGRGGRGGARGGYSRAVAPSSALEPDAFTADLDENQTKVDTTVTEVQPPVEESVTATVPTSSAPAPISFAAVAAAAHRKEALRKHQAQNPQPAAPPRRSLSPQPPLPSVAPVKEEPAAAPVFFEPETSHQPEKEDGFFQNESSVLAEEQTPNVSTHHDENVQSTPEPNQAWTTQLKTDLGIGLSEAPGLGLSPIPSAAPVQIIPDPGVEFVGTTAPTNIHDYSFGFVEAAPSPQLPSTESSAASISNASENIFNSSRIMPKQVEPERTSIPNGDYNLKSTSPPLSYGQSNRGLSYDTSSASYQPTDRMAPNKFNNSGPLPTQQSAQQHQPQQQQQQAPQQPVQQQQQTPPAQSQPTGHPQQHPHMMFTQQLPYAPYMNNYMNMYNPMPGVRDEQYTAALMQYGMGVDLTSLLPTAPLSQAASAQQVQSGQQRETHGLMDFNKFGSQSSRDQQPQQASNVGPPPGFQATNYMQQPNLSSLFMQQYSPAPHQFTPFMNMMPNVGSSAGGRQLYGQDDERKSYDKMSGSKPAAQQNQHSQYQHNGGNLGKYGMNKPYNWSN”, for which the “soluble on expression in E. coli” value was “not soluble”.

For “MGSDKIHHHHHHENLYFQGMIKLIATDIDGTLVKDGSLLIDPEYMSVIDRLIDKGIIFVVCSGRQFSSEFKLFAPIKHKLLYITDGGTVVRTPKEILKTYPMDEDIWKGMCRMVRDELPACDYFAATPDFCFAEDGGSPIFHLLRDSYGFEMREVDDITRLDRNDIIKFTVFHPDKCEELCTPVFIPAWNKKAHLAAAGKEWVDCNAKGVSKWTALSYLIDRFDLLPDEVCCFGDNLNDIEMLQNAGISYAVSNARQEVIAAAKHTCAPYWENGVLSVLKSFL”, the “soluble on expression in E. coli” value is listed as “soluble”.

On to “GPGSMGVDLTGISKKSRVIRHHTYSTNPYIKLLIKLYKFLAKRTSSGFNKVVYQRLIKSRSNRAPISLSRIAVVMKRKAVFTAKSKAAPIAVVVGDVLDDVRMARIPAMRVCALRFSKSARQSIVAAGGECLTFDQLAMIAPTGKNTYLLRGRKSGRESVRHFGASGVPGSHSKPYATNRGKETKRGRRTGRSYKRKAFRHV”, for which the “soluble on expression in E. coli” value is recorded as “soluble”.

With “MSLNKTFTVEKANRFIAENKHLVNTQYKPEEHFSAEIGWINDPNGFVYFRGEYHLFYQFYPYDSVWGPMHWGHAKSKDLVTWEHLPVALAPDQDYDRNGCFSGSAIVKDDRLWLMYTGHIEEKTGVRQVQNMAFSDDGIHFEKISQNPVATGSDLPDELIAADFRDPKLFEKDGRYYSVVAAKHKNNVGCIVLLGSDNLVEWQFESIFLKGVEHQGFMWECPDYFELDGKDCLIMSPMRYQREGDSYHNINSSLLFTGKVDWGEKCFIPESVQEIDHGQDFYAPQTLLDDQNRRILIAWMQTWGRTLPTHDQEHKWACAMTLPRILRLEDGKLRQFPVKKGQYQIQIDKDCHYHLGNDTDYLEFGYDSNVQQVYIDRSHLIQKILGEEEQDTSRRYVDIEAKELEVVLDKNSIEIFVNQGEASLTATYYLTVPAELSRIDEGHHHHHH”, the “soluble on expression in E. coli” value is reported as “soluble”.

With “GMMTDEARAKLAAIPMLAGYTGPLERLGGLTNLVFRAGDLCLRIPGKGTEEYINRANEAVAAREAAKAGVSPEVLHVDPATGVMVTRYIAGAQTMSPEKFKTRPGSPARAGEAFRKLHGSGAVFPFRFELFAMIDDYLKVLSTKNVTLPAGYHDVVREAGGVRSALAAHPLPLAACHCDPLCENFLDTGERMWIVDWEYSGMNDPLWDLGDLSVEGKFNANQDEELMRAYFGGEARPAERGRVVIYKAMCDLLWTLWGLIQLANDNPVDDFRAYADGRFARCKALMETPEFSRHLAAVRMG”, the “soluble on expression in E. coli” value is listed as “soluble”.

For “MIMSKIKLTKNDLKKQKDELKMFKRYLPTLQLKKQQLYMEIVKIENSYKIKNLEQQKLKENISNWISLFSEKFPFESWIQVKTVVKKSLNIAGVAIPIFDSIEYEDIRHDLLFTPYWVDKGIEILKVVIQIDVELKILKKQIDLLLREFRITSQRVNLFEKVMIPTAKANIKKINIYLGDQQTAAVVRGKIAKSSLIKKNRNSLLEHHHHHH”, the “soluble on expression in E. coli” value is on record as “not soluble”.

Turning to “MSSIDIVIPNYNYGRFLKGCVESVLGQNIADMRILIIDNASTDDSVAISRSLAAANPRIETSLRARNLGGHASFNAGIDWARADYFAIICADDVLSPGALARAMEALDNNPGAHMAFGRTAFFRDDAEIASGLHSDADGMRLHRGMDFIANICATGRSPVQGPLAVTRTHIQQHAGHYRPALRHTDDVEMWMRLAVLGDIVELDAVQNFTRIHGANQSAILDNVLAWNAEIEAALESFFGNEGALLADAKTLLRRGRASLSDRAYWCALSNLVRRRPGAGALLAQAFRLRPASALLPPISYLMRRPDALHRIRAAIARRLEHHHHHH”, the “soluble on expression in E. coli” value is “not soluble”.
